The values below come from PMC7073074 (2020).

Experiment [1] has as its target T1, rabbit muscle F-actin (Oryctolagus cuniculus (Rabbit), UniProt P68135). Description: F-actin co-sedimentation, Coomassie SDS-PAGE.
Experiment [2] addresses T1, rabbit muscle F-actin. Description: F-actin co-sedimentation, Coomassie SDS-PAGE (apparent Kd given only as 8.9 µg, CI 5-20 µg); low ionic strength: co-pellets at 50 mM NaCl but not at 100 or 150 mM NaCl; polymerised (F-)actin.

B1: FLAG-tagged coronin A lacking the coiled coil (protein)
chain: MSKVVRSSKYRHVFAAQPKKEECYQNLKVTKSAWDSNYVAANTRYFGVIWDAAGGGSFAVIPHEASGKTTSVPLFNGHKSAVLDIAFHPFNENLVGSVSEDCNICIWGIPEGGLTDSISTPLQTLSGHKRKVGTISFNPVADNVAVTSSGDFLVKTWDVEQGKNLTTVEGHSDMITSCEWNHNGSQIVTTCKDKKARVFDPRTNSIVNEVVCHQGVKNSRAIFAKDKVITVGFSKTSERELHIYDPRAFTTPLSAQVVDSASGLLMPFYDADNSILYLAGKGDGNIRYYELVDESPYIHFLSEFKSATPQRGLCFLPKRCLNTSECEIARGLKVTPFTVEPISFRVPRKSDIFQDDIYPDTYAGEPSLTAEQWVSGTNAEPKTVSLAGGFVKKASAVEFKPVVQVQEGPKN
Take B1: the binding result with rabbit muscle F-actin [1] is on record as “no binding”.

B2: FLAG-tagged coronin A (protein)
chain: MSKVVRSSKYRHVFAAQPKKEECYQNLKVTKSAWDSNYVAANTRYFGVIWDAAGGGSFAVIPHEASGKTTSVPLFNGHKSAVLDIAFHPFNENLVGSVSEDCNICIWGIPEGGLTDSISTPLQTLSGHKRKVGTISFNPVADNVAVTSSGDFLVKTWDVEQGKNLTTVEGHSDMITSCEWNHNGSQIVTTCKDKKARVFDPRTNSIVNEVVCHQGVKNSRAIFAKDKVITVGFSKTSERELHIYDPRAFTTPLSAQVVDSASGLLMPFYDADNSILYLAGKGDGNIRYYELVDESPYIHFLSEFKSATPQRGLCFLPKRCLNTSECEIARGLKVTPFTVEPISFRVPRKSDIFQDDIYPDTYAGEPSLTAEQWVSGTNAEPKTVSLAGGFVKKASAVEFKPVVQVQEGPKNEKELREEYEKLKIRVAYLESEIVKKDAKIKELTN
Take B2: in the experiment with rabbit muscle F-actin [2], the binding result was “binds”.
